Experimental data: article PMC5399183

Biological target: Recombinant human integrin αvβ5 (human) (UniProt P06756)
Sequence of UniProt P06756 (P06756 31-1048, chain 1 of 2): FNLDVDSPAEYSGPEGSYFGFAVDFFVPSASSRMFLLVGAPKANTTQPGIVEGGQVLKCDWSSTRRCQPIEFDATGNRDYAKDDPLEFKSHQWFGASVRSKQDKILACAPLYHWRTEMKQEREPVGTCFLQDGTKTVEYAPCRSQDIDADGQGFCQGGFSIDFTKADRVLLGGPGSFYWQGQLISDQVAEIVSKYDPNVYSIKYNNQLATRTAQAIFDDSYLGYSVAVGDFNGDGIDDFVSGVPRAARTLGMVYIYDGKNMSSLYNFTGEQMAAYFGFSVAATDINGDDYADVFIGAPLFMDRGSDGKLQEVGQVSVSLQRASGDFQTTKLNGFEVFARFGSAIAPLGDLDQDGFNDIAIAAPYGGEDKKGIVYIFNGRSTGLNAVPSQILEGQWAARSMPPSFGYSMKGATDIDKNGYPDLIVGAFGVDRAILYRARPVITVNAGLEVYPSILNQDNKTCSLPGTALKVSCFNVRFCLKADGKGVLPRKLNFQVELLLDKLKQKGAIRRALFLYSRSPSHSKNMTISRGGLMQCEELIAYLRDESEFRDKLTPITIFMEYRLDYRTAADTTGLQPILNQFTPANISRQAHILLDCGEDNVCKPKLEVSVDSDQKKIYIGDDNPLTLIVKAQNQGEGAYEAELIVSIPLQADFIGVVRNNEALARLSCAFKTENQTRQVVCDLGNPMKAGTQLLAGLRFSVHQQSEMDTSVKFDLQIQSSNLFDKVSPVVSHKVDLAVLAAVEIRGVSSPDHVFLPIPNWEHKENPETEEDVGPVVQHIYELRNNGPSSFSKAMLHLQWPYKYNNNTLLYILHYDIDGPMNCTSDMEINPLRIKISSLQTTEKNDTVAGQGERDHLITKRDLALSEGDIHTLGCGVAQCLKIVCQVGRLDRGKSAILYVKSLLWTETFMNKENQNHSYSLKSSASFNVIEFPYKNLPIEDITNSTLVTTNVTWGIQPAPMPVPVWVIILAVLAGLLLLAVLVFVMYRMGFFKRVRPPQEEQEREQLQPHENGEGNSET
Sequence of UniProt P06756 (P18084 24-719, chain 2 of 2, further chain): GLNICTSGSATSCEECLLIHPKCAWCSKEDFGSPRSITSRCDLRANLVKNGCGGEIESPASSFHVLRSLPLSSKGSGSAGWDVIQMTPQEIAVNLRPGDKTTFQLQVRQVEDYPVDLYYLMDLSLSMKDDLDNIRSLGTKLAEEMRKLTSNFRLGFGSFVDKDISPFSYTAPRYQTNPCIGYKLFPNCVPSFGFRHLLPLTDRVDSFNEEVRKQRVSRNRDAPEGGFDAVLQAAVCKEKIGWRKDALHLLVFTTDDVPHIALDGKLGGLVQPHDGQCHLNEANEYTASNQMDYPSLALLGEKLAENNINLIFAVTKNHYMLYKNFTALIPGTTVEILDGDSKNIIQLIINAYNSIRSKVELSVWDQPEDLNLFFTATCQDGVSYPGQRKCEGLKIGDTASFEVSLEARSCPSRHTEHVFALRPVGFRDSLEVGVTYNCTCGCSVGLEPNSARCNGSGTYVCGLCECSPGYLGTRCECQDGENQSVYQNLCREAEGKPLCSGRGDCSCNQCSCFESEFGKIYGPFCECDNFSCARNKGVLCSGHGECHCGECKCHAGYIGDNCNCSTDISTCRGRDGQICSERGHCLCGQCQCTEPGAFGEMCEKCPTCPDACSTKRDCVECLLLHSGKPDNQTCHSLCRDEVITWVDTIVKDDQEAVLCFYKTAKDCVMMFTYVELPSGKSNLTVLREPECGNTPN

Substance: Recombinant human angiopoietin 2 (from UniProt O15123 19-496) (ligand)
- Ang2-induced astrocyte apoptosis under high glucose (annexin-V/PI FACS, 48 h, percentage of apoptotic cells) with anti-integrin αvβ5 blocking antibody (10 μg/ml): 19.3%
